Consider 4 molecules from US8263340B2, “Constitutively active mutants of the prolactin receptor” (Institut National de la Sante et de la Recherche Medicale …, priority 2007, dated 2012).

One data set deals with mutant I76V. The data set can be described thus: Effect of PRLR inhibitors on proliferation of Ba/F3 cells expressing mutant I76V. It is filed as cell-based, murine. Particulars: 3 days. The method, then:
(§1) Cells were starved for 6 hours in 1% FCS RPMI medium with additives (no PRL), then distributed in 96 well-plates at a density of 5×10^4 cells/well in a final volume of 100 μL. One hundred μL, of [2×] hPRL (and/or antagonist) diluted in the same medium were added after starvation period. Cell survival/proliferation was estimated after 2-3 days of hormonal stimulation by adding 10-20 μL, of WST-1 tetrazolium salt, which is metabolized by living cells (BERNICHTEIN et al., Endocrine, 20, 177-190, 2003). Optical density at 450 nm (OD450) was measured after 1-3 hours of colorimetric reaction using an ELISA plate reader. The experiments were routinely performed at least three times in triplicate or quadruplicate.
Proliferation of stable Ba/F3 cell populations was evaluated in poor medium (1% FCS) in the presence of WT hPRL, or of the PRLR antagonist De11-9-G129R-hPRL, or of AG490, for 3 days. The results are illustrated in FIGS. 12 and 13.

For a further data set, the system named is WT PRLR cells. The data set can be described thus: Effect of PRLR inhibitors on proliferation of Ba/F3 cells expressing WT PRLR. It is filed as cell-based, murine. As to conditions: no PRL, 1% FCS, 3 days. The method, then:
as §1, with “([…]” for “(BERNICHTEIN”, “quadruplicate. Proliferation of stable Ba/F3 cell populations was evaluated in poor medium (1% FCS) in the presence of WT hPRL, or of the PRLR antagonist De11-9-G129R-hPRL, or of AG490, for 3 days. The results are illustrated in FIGS. 12 and 13.” for “quadruplicate.”

The test system of data set [1] is Ba/F3 cells. Format: cell-based, murine. As to conditions: 1% FCS; for constitutive proliferation / survival: absence of PRL. The method, then: Ba/F3 cells are a pro-B murine cell line dependent on IL-3 for growth. Cells were transfected by electroporation using 5-20 μg of plasmid encoding the WT or mutated human PRLR(CMV promoter), then the populations stably expressing the receptor was selected by several passages in G418-containing medium. Ba/F3-hPRLR cells were routinely maintained in RPMI 1640 medium supplemented with 10% heat-inactivated FCS, 2 mM glutamine, 50 U/mL penicillin, 50 μg/mL streptomycin, 700 μg/mL G-418 (for selection of stably transfected cells), and 10-100 ng/mL WT hPRL instead of IL-3 as the growth factor.
as §1

Data set [2] concerns LHRE-luciferase reporter (Stat5). As to the kind of experiment: LHRE-luciferase reporter assay in HEK 293 cells expressing WT or mutated hPRLR. It is filed as cell-based, human. An excerpt:
The human PRLR cDNA inserted into the pc/DNA3 eukaryotic vector (InVitrogen, Carlsbad, Calif.) has been generated as described previously (LOCHNAN et al, Mol Cell Endocrinol 114:91-99, 1995; GOFFIN et al, J Biol Chem 271:16573-16579, 1996). The PRLR-responsive LHRE-luciferase reporter gene carries the sequence encoding the firefly luciferase gene under the control of a 6-repeat sequence of the lactogenic hormone response element (LHRE) followed by the minimal thymidine kinase promoter (GOFFIN et al., J Biol Chem, 271, 16573-16579, 1996). LHRE is the DNA binding element of the signal transducer and activator of transcription Stat5, one of the signaling proteins activated by the PRLR once it is activated (WAKAO et al, EMBO J. 13, 2182-2191, 1994).
Cells were routinely cultured in DMEM medium supplemented with 10% FCS, 2 mM glutamine, 50 U/mL penicillin, 50 μg/mL streptomycin. Cells were co-transfected, using the lipofectamine method with two or three plasmids, one encoding the receptor of interest, one encoding the LHRE-firefly luciferase vector as a reporter of PRLR-mediated a effects, and one encoding the Renilla Luciferase which is expressed in a PRL-independent manner and serves as an internal control of transfection efficiency (DOS SANTOS et al., Nat Genet, 36, 720-724, 2004).
After trypsinization, cells were counted and aliquoted in 96-well plates at a density of 50,000 cells/100 μL/well. Plating medium contained 0.5% FCS to allow cell adhesion. Six to eighteen hours (overnight) after plating, cells were stimulated by addition to each well of 100 μL of PRL (1 μg/ml) diluted in FCS-free medium. After 24 hours of stimulation, culture medium was aspirated and cells were lyzed for at least 10 minutes in 50-100 μL of lysis buffer (Promega). Luciferase activity (only firefly luciferase for stable clones, and both firefly and renilla luciferases for transient transfections) for each experimental condition was counted in 10-20 μL of cell lysates for 10 seconds using a luminometer (Lumat LB 9501, Berthold, Nashua, N.H.). […]
A general note: A reporter such as luciferase makes a cellular process visible.

Data set [3] deals with Ba/F3 cells. As to the kind of experiment: Cell cycle / apoptosis of transfected Ba/F3 stable populations by FACS (propidium iodine). It is filed as cell-based, murine. Particulars: minimal medium. An excerpt: The cell cycle of transfected Ba/F cells (stable populations) was studied by FACS analysis, using propidium iodine labelling as previously described (JEAY et al., Endocrinology 142:147-156, 2001). Cells were put in minimal medium, with or without PRL for the indicated time.
In general terms: A flow cytometer gives signals particle by particle.

In another data set the test system is hPRL. The data set can be described thus: Binding affinity of WT and mutated PRLR for hPRL, [125I]-hPRL competition with Scatchard analysis, stably transfected HEK 293 cell homogenates. On the set-up: species or system human. As to conditions: stable HEK 293 clones, overnight at room temperature. The method, then: (§2) Binding affinities of mutated PRLR for hPRL were determined using cell homogenates of stably transfected HEK 293, following a procedure previously described (KINET et al., J Biol Chem, 274, 26033-26043, 1999). Briefly, recombinant hPRL, produced in bacteria E. coli using the pT7L expression vector, and purified as described previously (PARIS et al., Biotechnol Appl Biochem, 12, 436-449, 1990), was iodinated using the Iodogen method, and its specific activity was in the range of 4-5 μCi/μg. Binding assays were performed overnight at room temperature using 150-300 μg cell homogenate protein in the presence of 20,000-30,000 cpm [^125I]-hPRL and increasing concentrations of unlabeled hPRL (competitor). Scatchard analysis was performed to determine the binding affinity of mutated PRLR and the number of PRLR per cell in stable clones or populations.

The next data set concerns Stat5. As to the kind of experiment: Stat5 phosphorylation by immunoprecipitation and western blot in Ba/F3 populations. It is filed as cell-based, murine. The method, then:
Stat5 is the main PRLR signalling mediator, and a known anti-apoptotic factor in Baf cells. Its phosphorylation was analyzed by immunoprecipitation and western blot, using the protocol described in Example 3 for the analysis of PRLR phosphorylation.
Immunoprecipitation was performed with anti-STAT5 antibodies (c17, SantaCruz). The membranes were incubated with anti-PY antibody (4G10, Upstate), and when required re-incubated with anti-STAT5 (c17, SantaCruz) antibodies.
The results are illustrated by FIG. 16: (−)=no PRL, (+)=0,5 μg/ml PRL.

The next data set has as its system PRLR phosphorylation. As to the kind of experiment: PRLR tyrosine phosphorylation by immunoprecipitation and western blot in transfected HEK 293 cells. Format: cell-based, human. The method, then: Receptor phosphorylation on tyrosine residues is the first step of PRLR activation.
Transient or stable transfected cells were starved overnight in FCS-free medium before hormonal stimulation. The next day, cells were stimulated (5-30 min at 37° C.) using various concentrations of WT hPRL as indicated. At the end of the stimulation, cells were washed twice with ice-cold saline buffer and cell pellets were kept frozen until used. Cells were solubilized in 0.5-1 ml lysis buffer (30 min under gentle rotation at 4° C.). Lysates were centrifuged for 10 min at 13,000×g, then supernatants were quantified for their protein content by Bradford assay and used for immunoprecipitation.
For immunoprecipitation studies, 0.5-1 mg of total lysate were incubated with anti-human PRLR (anti extracellular domain of the human PRLR, Zymed, clone 1A2B1), used at 1-5 μl/ml. After overnight rotation at 4° C., immune complexes were captured using 20 μl Protein A Sepharose slurry for 1 additional hour rotation at 4° C. Protein A complexes were precipitated by centrifugation, pellets were washed 3 times in lysis buffer and boiled in 15 μl reducing SDS sample buffer for 5 min at 95° C. Finally, immunoprecipitated samples were analysed using 7.5% SDS-PAGE. Electrophoretic transfer onto nitrocellulose membranes (Bio-Rad) was performed as described (LLOVERA et al., Oncogene, 19, 4695-4705, 2000). […]
In general terms: In western blotting, separated proteins are transferred to a membrane and probed.

In the next data set the test system is mutated PRLR. The data set can be described thus: Binding affinity of the PRLR antagonist for mutated and WT PRLR (not shown). On the set-up: species or system human. As for the experimental part: as §2
Similarly, the affinity for the pure PRLR antagonist De11-9-G129R-hPRL (BERNICHTEIN et al., J Biol Chem, 278, 35988-35999, 2003) is also identical for the mutants and the receptors (not shown).

`N#CC(=Cc1ccc(O)c(O)c1)C(=O)NCc1ccccc1` [AG490, N-Benzyl-3,4-dihydroxy-benzylidenecyanoacetamide, reference compound]: the “inhibition of constitutive activation (proliferation) of mutant I76V” value in the data set with mutant I76V (20 μM AG490, no PRL) is on record as “partially inhibited”. For the same molecule, the “effect on basal proliferation of WT PRLR cells” value with WT PRLR cells is on record as “no effect”.
Turning to “wild-type PRLR: wild-type human prolactin receptor (isoform 1), SEQ ID NO: 1, used as control”, the “constitutive proliferation / survival” value with Ba/F3 cells [1] is “hardly survived”. The “basal activity (unstimulated cells), luciferase” value in [2] (no PRL, compared to WT receptor) is “devoid of activity”. For the same molecule, the “fold stimulation induced by PRL” value in [2] (stable clones, PRL 1 μg/ml, 24 hours) turned out to be 8 fold. This molecule also yielded an apoptosis with Ba/F3 cells [3] (absence of PRL, 30 h) of 50%. In addition, the “effect of PRL on apoptosis” value in the data set with Ba/F3 cells [3] (with PRL) is “PRL prevents this effect”. The molecule further registered a Kd with hPRL of 0.64 nM.

B1: I76V: mutant human prolactin receptor wherein the Ile residue at position 76 is substituted by a Val residue (protein)
chain: QLPPGKPEIFKCRSPNKETFTCWWRPGTDGGLPTNYSLTYHREGETLMHECPDYITGGPNSCHFGKQYTSMWRTYVMMVNATNQMGSSFSDELYVDVTYIVQPDPPLELAVEVKQPEDRKPYLWIKWSPPTLIDLKTGWFTLLYEIRLKPEKAAEWEIHFAGQQTEFKILSLHPGQKYLVQVRCKPDHGYWSAWSPATFIQIPSDFTMNDTTVWISVAVLSAVICLIIVWAVALKGYSMVTCIFPPVPGPKIKGFDAHLLEKGKSEELLSALGCQDFPPTSDYEDLLVEYLEVDDSEDQHLMSVHSKEHPSQGMKPTYLDPDTDSGRGSCDSPSLLSEKCEEPQANPSTFYDPEVIEKPENPETTHTWDPQCISMEGKIPYFHAGGSKCSTWPLPQPSQHNPRSSYHNITDVCELAVGPAGAPATLLNEAGKDALKSSQTIKSREEGKATQQREVESFHSETDQDTPWLLPQEKTPFGSAKPLDYVEIHKVNKDGALSLLPKQRENSGKPKKPGTPENNKEYAKVSGVMDNNILVLVPDPHAKNVACFEESAKEAPPSLEQNQAEKALANFTATSSKCRLQLGGLDYLDPACFTHSFH
Consider B1, for which the “effect of PRL on proliferation” value with Ba/F3 cells [1] (10 or 100 ng/ml hPRL) is reported as “further increased”. For the same molecule, the “constitutive proliferation / survival” value in the data set on Ba/F3 cells [1] is reported as “moderate but significant constitutive proliferation”. Also, in data set [2] (transient transfections, normalized firefly/renilla luciferase), the fold induction was found to be 5 fold. In addition, in the data set with Stat5 (0,5 μg/ml PRL), the “effect of PRL stimulation on phosphorylation of Stat5” value is “can be increased”. Besides, the “phosphorylation of Stat5” value in the data set on Stat5 (absence of PRL stimulation) is on record as “moderate”. The same molecule displayed a Kd in the data set on hPRL of 0.44 nM. Further, the “constitutive phosphorylation of PRLR” value with PRLR phosphorylation (absence of PRL stimulation) is given as “weaker”. Moreover, the “effect of PRL stimulation on PRLR phosphorylation” value in the data set on PRLR phosphorylation (with PRL stimulation) is on record as “increased phosphorylation”.

B2: De11-9-G129R-hPRL: pure PRLR antagonist, variant of human prolactin, which interferes with the mechanism of receptor activation by PRL (protein)
chain: RCQVTLRDLFDRAVVLSHYIHNLSSEMFSEFDKRYTHGRGFITKAINSCHTSSLATPEDKEQAQQMNQKDFLSLIVSILRSWNEPLYHLVTEVRGMQEAPEAILSKAVEIEEQTKRLLERMELIVSQVHPETKENEIYPVWSGLPSLQMADEESRLSAYYNLLHCLRRDSHKIDNYLKLLKCRIIHNNNC
B2: the “inhibition of constitutive activation (proliferation) of mutant I76V” value in the data set with mutant I76V (10 μg/ml antagonist, no PRL) is given as “inhibited”. For the same molecule, the “affinity for mutants versus WT receptor” value with mutated PRLR is listed as “identical”. In addition, the “effect on basal proliferation of WT PRLR cells” value in the data set with WT PRLR cells is given as “no effect”.

Broadly, the Kd is a measure of binding affinity in units of concentration. As usually defined, the fold induction is the ratio of treated to control signal. A low value points to a weak induction.
